This passage reports Binding Affinity to Mouse MHC Class I (percent increase of D^b or K^b on RMA-S cells) results from EP1117687B1.

The chains are these.
B1: WT1 peptide P131-139 … (peptide)
peptide: APYLPSCLE
B2: WT1 peptide P127-135 … (peptide)
peptide: MFPNAPYLP
B3: WT1 peptide P124-132 … (peptide)
peptide: QARMFPNAP
B4: WT1 peptide P129-137 … (peptide)
peptide: PNAPYLPSC
B5: WT1 peptide P117-125 … (peptide)
peptide: PSQASSGQA
B6: WT1 peptide P121-129 … (peptide)
peptide: SSGQARMFP

For this experiment, the target named is Mouse MHC Class I (mouse B6 class I antigens, H-2^b: D^b or K^b) on RMA-S cells (mouse). In words: RMA-S MHC stabilisation, flow cytometry with FITC anti-D^b or anti-K^b. For orientation: Flow cytometry measures light scatter and fluorescence of single cells or particles in a stream.
With WT1 peptide P118-126 …, the Binding Affinity to Mouse MHC Class I (percent increase of D^b or K^b on RMA-S cells) amounted to 2%. As for WT1 peptide P119-127 …, the Binding Affinity to Mouse MHC Class I (percent increase of D^b or K^b on RMA-S cells) stood at 2%. With WT1 peptide P120-128 …, the Binding Affinity to Mouse MHC Class I (percent increase of D^b or K^b on RMA-S cells) was determined as 1%. As for WT1 peptide P122-130 …, the figure is 1%. The same measure for WT1 peptide P123-131 …: 1%; for WT1 peptide P125-133 …: 1%. As for WT1 peptide P128-136 …, the figure is 1%; as for WT1 peptide P130-138 …, 79%. Regarding WT1 peptide p126-134 …, the Binding Affinity to Mouse MHC Class I (percent increase of D^b or K^b on RMA-S cells) is 79%. Regarding B1, the Binding Affinity to Mouse MHC Class I (percent increase of D^b or K^b on RMA-S cells) stood at 1%. As for B2, the figure is 2%; as for B3, 1%. The same measure for B4: 1%; for B5: 2%.

B6: the Binding Affinity to Mouse MHC Class I (percent increase of D^b or K^b on RMA-S cells) was determined as 1%.
